{
  "source": "patent US20200057058A1",
  "about": "(MIT, published 2020)",
  "key": {"[1]": {"target": "monomeric streptavidin variant mSA2", "assay": "apparent Kd (Kd,app); fluorescent binding curve, labeled mSA2 in PBS, 8 h exposure; quadratic fit", "procedure": "(§1) The binding function of rcSso7d.SA oligomer-PNIPAM thin films was measured using fluorescently-labeled monomeric streptavidin (mSA2) and fluorescently-labeled streptavidin (SA). Details for the expression, purification, and fluorescent labeling of mSA2 are provided below. Samples were prepared by serial dilution of SA or mSA2 in PBS (pH 7.4), human urine (diluted to 50% v/v in PBS, pH 7.4), or blood serum (obtained as the supernatant by centrifuging whole blood at 1500×g for 10 minutes, then diluted to 50% v/v in PBS, pH 7.4). 0.5 μL drops of solutions containing serially diluted fluorescent mSA2 and fluorescent SA samples in PBS (pH 7.4) were gently applied to the surface of each bioconjugate thin film. […] Fluorescence microscopy images were acquired at 4× magnification using a Cy5 filter set and exposure time of 5000 ms on an Olympus IX-81 inverted fluorescence microscope with an AxioCam HRC CCD camera. Fluorescent intensity was calculated using ImageJ software⁶⁷ by determining the average fluorescent signal in a rectangular area of the fluorescent image free of defects and occupying no less than half of the full sample application area.\n(§2) To evaluate how the apparent size-based diffusion properties translated to biosensing capabilities, binding curves were measured using SA and mSA2 solutions in buffer. […]"}, "[2]": {"target": "monomeric streptavidin variant mSA2", "assay": "apparent Kd (Kd,app); fluorescent binding curve, labeled mSA2 in PBS, 0.5 h exposure; quadratic fit"}, "[3]": {"target": "monomeric streptavidin variant mSA2", "assay": "fluorescent binding curve fits, labeled mSA2 in PBS", "procedure": "The binding function of rcSso7d.SA oligomer-PNIPAM thin films was measured using fluorescently-labeled monomeric streptavidin (mSA2) and fluorescently-labeled streptavidin (SA). Details for the expression, purification, and fluorescent labeling of mSA2 are provided below. Samples were prepared by serial dilution of SA or mSA2 in PBS (pH 7.4), human urine (diluted to 50% v/v in PBS, pH 7.4), or blood serum (obtained as the supernatant by centrifuging whole blood at 1500×g for 10 minutes, then diluted to 50% v/v in PBS, pH 7.4). […] After 1 hour, films were thoroughly rinsed with water for 10 seconds (a time determined to be sufficient to remove unbound molecules from the film, see FIG. 33, dried under filtered airflow, and immediately analyzed for fluorescent signal. Fluorescence microscopy images were acquired at 4× magnification using a Cy5 filter set and exposure time of 5000 ms on an Olympus IX-81 inverted fluorescence microscope with an AxioCam HRC CCD camera. Fluorescent intensity was calculated using ImageJ software⁶⁷ by determining the average fluorescent signal in a rectangular area of the fluorescent image free of defects and occupying no less than half of the full sample application area.\nas §2"}, "[4]": {"target": "monomeric streptavidin variant mSA2", "assay": "fluorescent binding curve, labeled mSA2 in PBS, 4 h exposure", "procedure": "as §1, §2"}, "[5]": {"target": "monomeric streptavidin variant mSA2", "assay": "fluorescent binding curve, labeled mSA2 in PBS, 4 h exposure; quadratic fit", "procedure": "as §1, with “film. Films were incubated in a sealed chamber saturated with water vapor at room temperature to prevent to prevent drying of the applied fluorescent samples.” for “film.”\n(§3) To evaluate how the apparent size-based diffusion properties translated to biosensing capabilities, binding curves were measured using SA and mSA2 solutions in buffer. Binding curves were fit with a quadratic model that is a function of three parameters: the average MFI per binding event a, the total concentration of binding sites [P]T, and the apparent dissociation constant K_{d,app} describing the binding equilibrium between analyte and binding sites within the thin film."}, "[6]": {"target": "monomeric streptavidin variant mSA2", "assay": "apparent Kd (Kd,app); fluorescent binding curve, labeled mSA2 in PBS, 4 h exposure; quadratic fit", "procedure": "as §1, with “film. Films were incubated in a sealed chamber saturated with water vapor at room temperature to prevent to prevent drying of the applied fluorescent samples.” for “film.”\nas §3"}},
  "data": [
    {"binder": "3xSP56.1k thin film (3x rcSso7d.SA-PNIPAM conjugate, PNIPAM Mn 56.1 kDa) (designed binder, maleimide end-functionalized PNIPAM (Mn 56.1 kDa) on the N-terminal Cys; film lightly crosslinked with glutaraldehyde) MGSSHHHHHHSSGLVPRGSHMCATVKFTYQGEEKQVDISKIKIVARDGQYIDFKYDEGGGAYGYGWVSEKDAPKELLQMLEKQGGGGSGGGGSMATVKFTYQGEEKQVDISKIKIVARDGQYIDFKYDEGGGAYGYGWVSEKDAPKELLQMLEKQGGGGSGGGGSMATVKFTYQGEEKQVDISKIKIVARDGQYIDFKYDEGGGAYGYGWVSEKDAPKELLQMLEKQGG", "values": [
      {"measurement": "Kd", "setting": "[1]", "value": 13, "unit": "µM"},
      {"measurement": "Kd", "setting": "[2]", "value": 33, "unit": "µM"},
      {"measurement": "accessible binding sites relative to the 3×SP9.6k film", "setting": "[3]", "value": "> 4", "unit": "fold"},
      {"measurement": "reduction in LOD relative to rcSso7d.SA monolayer", "setting": "[4]", "value": "~4", "unit": "fold"},
      {"measurement": "[P]T (total concentration of binding sites)", "setting": "[5]", "value": 3.2, "unit": "nM"},
      {"measurement": "Kd", "setting": "[6]", "value": 16, "unit": "µM"}
    ]}
  ]
}
